This assay deals with T1, recombinant cIAP1 protein (human, UniProt Q13490 1-618).
T1 construct: the whole cIAP1, human cDNA; cloned in pGEX-6P-1; also called released from GST-cIAP1 (GST-cIAP); source: E. coli DH5α, purified (Glutathione Sepharose 4B), released from the beads with 3C protease (Turbo3C)
Kind of assay: pull-down; GST pull-down: 2 μg polyubiquitin chains or 0.5 μg cIAP1 with 0.5 μg GST or GST-ZnF5-7 proteins and Glutathione Sepharose 4B in TNE buffer (20 mM Tris-HCl pH 7.5, 130 mM NaCl, 1% Triton X-100, 1 mM EDTA) with 0.5 mM DTT and 0.1 mg/ml BSA, 3 hr; immunoblot. The conditions noted are these: both partners purified. For orientation: A western blot detects proteins with antibodies after separation by electrophoresis.

Results on 1 molecule are retold here after article PMC3764444, “Involvement of A20 in the molecular switch that activates the non-canonical NF-кB pathway” (Scientific Reports, 2013).

T1 sequence (Q13490 whole entry): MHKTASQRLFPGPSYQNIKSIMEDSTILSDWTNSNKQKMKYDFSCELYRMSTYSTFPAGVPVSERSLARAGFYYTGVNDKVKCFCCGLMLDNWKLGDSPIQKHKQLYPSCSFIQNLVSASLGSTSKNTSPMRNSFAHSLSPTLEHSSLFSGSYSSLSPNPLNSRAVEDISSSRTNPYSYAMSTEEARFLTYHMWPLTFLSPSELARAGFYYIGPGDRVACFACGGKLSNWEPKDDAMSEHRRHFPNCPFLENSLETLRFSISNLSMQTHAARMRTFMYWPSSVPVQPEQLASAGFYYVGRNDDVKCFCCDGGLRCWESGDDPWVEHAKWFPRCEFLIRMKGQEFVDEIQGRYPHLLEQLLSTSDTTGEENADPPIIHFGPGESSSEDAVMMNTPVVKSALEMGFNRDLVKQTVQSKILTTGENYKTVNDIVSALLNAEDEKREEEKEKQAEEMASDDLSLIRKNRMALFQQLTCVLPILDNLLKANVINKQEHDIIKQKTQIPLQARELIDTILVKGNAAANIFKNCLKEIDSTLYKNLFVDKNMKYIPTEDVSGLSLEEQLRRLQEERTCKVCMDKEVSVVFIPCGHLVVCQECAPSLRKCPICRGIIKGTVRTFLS

B1: GST-A20-ZnF5-7 (domain or fragment, human, UniProt P21580 647-790, looked up)
chain: TASRFQNTIPCLGRECGTLGSTMFEGYCQKCFIEAQNQRFHEAKRTEEQLRSSQRRDVPRTTQSTSRPKCARASCKNILACRSEELCMECQHPNQRMGPGAHRGEPAPEDPPKQRCRAPACDHFGNAKCNGYCNECFQFKQMYG
notes: A20, human, fragment aa 647-790 encompassing ZnF5 to ZnF7; cloned in pGEX-6P-1; also called GST-ZnF5-7; source: E. coli DH5α, purified (Glutathione Sepharose 4B), dialyzed with PBS
On to B1, for which the binding result is listed as “binds”.
